Data reported in publication PMC9974510, “Structure of metallochaperone in complex with the cobalamin-binding domain of its target mutase provides insight into cofactor delivery” (Proceedings of the National Academy of Sciences of the …, 2023).

B1: MeaB from Methylobacterium extorquens (natural protein, UniProt Q8RPA0 1-329, looked up)
chain: MSATLPDMDTLRERLLAGDRAALARAITLAESRRADHRAAVRDLIDAVLPQTGRAIRVGITGVPGVGKSTTIDALGSLLTAAGHKVAVLAVDPSSTRTGGSILGDKTRMARLAIDRNAFIRPSPSSGTLGGVAAKTRETMLLCEAAGFDVILVETVGVGQSETAVADLTDFFLVLMLPGAGDELQGIKKGILELADMIAVNKADDGDGERRASAAASEYRAALRILTPPSATWTPPVVTISGLHGKGLDSLWSRIEGHRSKLTATGEIAGKRREQDVKWMWALVHERLHQRLVGSAEVRQATAEAERAVAGGEHSPAAGADAIATLIGL
notes: MeaB, G-protein chaperone of methylmalonyl-CoA mutase, Methylobacterium extorquens, WP_003597297.1; 329 residues (Met1 to Leu329 of 329 named in the model of chain B); Synthetic gene in pET28a at NdeI and XhoI; also called G-protein metallochaperone MeaB; source: E. coli Bl21 T7 Express, purified (Ni-NTA, Superdex 200 SEC)

Assays:
[1] = molecular target: the molecule itself; assay: SEC; analytical Superdex200 Increase 10/300 GL; each protein alone (50 µM MeaB); apparent molecular weights against gel filtration standards; 50 mM HEPES pH 7.5, 500 mM NaCl
[2] = molecular target: B1; assay: cell-based or functional assay
[3] = molecular target: B1; assay: SEC; analytical Superdex200 Increase 10/300 GL; 50 µM MeaB and 100 µM MeMCMcbl preincubated with 500 µM GMPPCP and 1 mM MgCl2; 50 mM HEPES pH 7.5, 500 mM NaCl; peaks identified by SDS-PAGE; details: both partners purified

Row | Binder | stoichiometry N [1] | GTPase activity of MeaB (2 µM) with MeMCMcbl (4 µM), 500 µM GTP: inorganic phosphate produced, against MeaB alone [2] | stoichiometry N [3]
1 | Cbl-binding domain of the alpha subunit of Methylobacterium extorquens methylmalonyl-CoA mutase (domain or fragment, UniProt C5AV67 545-712, looked up, alpha subunit has 712 residues; Two constructs were made (N-terminal HisTag, of low solubility; C-terminal HisTag in pET28a at NcoI and XhoI); The crystal holds the C-terminal HisTag form (residues 713 to 714 of the tag modelled in chain C); the same form is surmised for the SEC and GTPase experiments; also called MeMCMcbl; MCMcbl; source: E. coli Bl21 T7 Express, purified (Ni-NTA, Superdex75 …)) RAQIRSISGVYKREVGGMSPVVEKVRGLVEAFEENDGRRPRILVAKMGQDGHDRGQKVIASAFADLGFDVDIGPLFATPDEAARQAVENDVHIVGVSSLAAGHLTLVPELKAALKQEGRDDVMIVVGGVIPPGDYDALYAAGASAIFPPGTVIAEAAVNLLGELNTRL | 2 | 25 fold | 1 MeMCMcbl dimer per MeaB dimer
2 | B1 | 2 | – | –
